Usually EC50 stands for the concentration that produces a half-maximal response. Low values mean greater potency, high ones weaker potency.

Here are results for five molecules from patent US20250171532A1 (NB HEALTH LABORATORY, published 2025).

The target in assay [1] is T1, human LPA1 (human, UniProt Q92633 1-364). The experiment in a line: cell-based or functional assay.
The target in assay [2] is T1, human LPA1. As to the kind of experiment: flow cytometry, human LPA1-stably expressing CHO cells, median fluorescence intensity. The source says: (§1) The human LPA1-stably expressing CHO cell and the mouse LPA1-stably expressing CHO cell were washed with PBS, then detached from the cell culture dishes by an enzyme-free cell dissociation buffer (Thermo Fisher Scientific, Inc.), then washed with PBS, and then collected by centrifugation. The human LPA1-stably expressing CHO cell and the mouse LPA1-stably expressing CHO cell were suspended at 1×10⁷ cells/mL in Fc Block (Sci-Tech Biosciences, Inc.) diluted by 500 times in FACS buffer, and then allowed to stand at 4° C. for 30 minutes to block the cells. The cells were collected by centrifugation and suspended in FACS buffer at 4×10⁶ cells/mL, and this suspension was dispensed into a V-bottom 96-well plate (Thermo Fisher Scientific, Inc.) at 25 μL (1×10⁵ cells)/well. As primary antibodies, the eleven types of LPA1 antibodies produced and purified by the method described above and a mouse isotype control antibody (Fujifilm Wako Pure Chemicals Corporation) were diluted stepwise, which was added to each well at 25 μL/well, and allowed to stand at 4° C. for 1 hour. The cells were collected by centrifugation and washed with 120 μL of FACS buffer. This washing operation was repeated twice. To the cell sediment, 25 μL each of Goat Anti-Mouse IgG H&L (DyLight 650) (Abcam) that was a secondary antibody diluted by 500 times in FACS buffer was dispensed, then suspended, and then allowed to stand at 4° C. for 1 hour. The cells were washed twice, then suspended in 50 μL of FACS buffer, and the binding of antibodies to the cells was measured using a flow cytometer (Agilent Novocyte).
Subsequently, the binding activity of the human LPA1-stably expressing CHO cell to human LPA1 was measured according to the method in Example 6. A graph was created, in which a concentration of the antibody was plotted on the […] axis, and a median fluorescence intensity of the flow cytometer histogram was plotted on the horizontal axis. […] The intracellular cAMP signaling inhibitory activity was also measured according to the method in Example 7.
On the technique in general: A flow cytometer gives signals particle by particle.

The target in assay [3] is T1, human LPA1. As to the kind of experiment: cell-based or functional assay. This is another data set of the same source.
Assay [4] addresses T2, mouse LPA1 (mouse, UniProt P61793 1-364). As to the kind of experiment: cell-based or functional assay.
Assay [5] has as its target T3, human LPA3 with FLAG tag (human LPA3 gene transfected cell) (human, UniProt Q9UBY5 1-353).
T3 construct: also called EDG7; not shown: FLAG tag added at the 5' terminal of the gene
T3 sequence: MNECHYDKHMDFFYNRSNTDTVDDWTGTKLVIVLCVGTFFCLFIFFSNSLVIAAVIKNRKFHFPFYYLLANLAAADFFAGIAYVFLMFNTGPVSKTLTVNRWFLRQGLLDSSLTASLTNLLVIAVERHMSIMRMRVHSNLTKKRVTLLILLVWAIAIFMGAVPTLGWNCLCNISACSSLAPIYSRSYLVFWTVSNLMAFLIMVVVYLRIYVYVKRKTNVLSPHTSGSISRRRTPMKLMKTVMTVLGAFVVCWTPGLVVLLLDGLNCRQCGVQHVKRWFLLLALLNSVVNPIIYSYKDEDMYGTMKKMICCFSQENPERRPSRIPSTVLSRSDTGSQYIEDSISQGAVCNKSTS
The experiment in a line: flow cytometry, transfected HEK293FT cells, histogram shift. As for the experimental part: (§2) BTEK293FT cell was transfected with 10 μg of an expression vector carrying each synthetic gene using Lipofectamine 2000, to prepare a human LPA1 gene transfected cell, a mouse LPA1 gene transfected cell, a human LPA2 gene transfected cell, a mouse LPA2 gene transfected cell, a human LPA3 gene transfected cell, and a mouse LPA3 gene transfected cell.
(§3) The next day, the cells were washed with PBS, then detached from the cell culture dishes by an enzyme-free cell dissociation buffer (Thermo Fisher Scientific, Inc.), then washed with PBS, and then collected by centrifugation. Goat serum (Thermo Fisher Scientific, Inc.) was diluted by 2 times in FACS buffer (PBS containing 1% o of FBS), into which the cells were suspended at 1×10⁷ cells/mL. This suspension was allowed to stand at 4° C. for 30 minutes to block the cells. The cells were collected by centrifugation and suspended in FACS buffer at 4×10⁶ cells/mL, and this suspension was dispensed into a V-bottom 96-well plate (Thermo Fisher Scientific, Inc.) at 25 μL (1×10⁵ cells)/well.
(§4) The cells were collected by centrifugation and washed with 120 μL of FACS buffer. This washing operation was repeated twice. To the cell sediment, 25 μL each of Goat Anti-Mouse IgG H&L (DyLight 650) (Abcam) that was a secondary antibody diluted by 500 times in FACS buffer was dispensed, then suspended, and then allowed to stand at 4° C. for 1 hour. The cells were washed twice, then suspended in 50 μL of FACS buffer, and the whole content thereof was transferred to a V-bottom 96-well plate (Greiner), to measure the binding of antibodies to the cells using a flow cytometer (Agilent Novocyte).

Assay [6] addresses T4, human LPA2 with FLAG tag (human LPA2 gene transfected cell) (human, UniProt Q9HBW0 1-348).
T4 construct: also called EDG4; not shown: FLAG tag added at the 5' terminal of the gene
The description is as above. The method, then: as §2, §3, §4

Assay [7] has as its target T5, mouse LPA2 with FLAG tag (mouse LPA2 gene transfected cell) (mouse, UniProt Q9JL06 1-348).
T5 construct: not shown: FLAG tag added at the 5' terminal of the gene
The description is as above. The method, then: as §2, §3, §4

The target in assay [8] is T6, mouse LPA3 with FLAG tag (mouse LPA3 gene transfected cell) (mouse, UniProt Q9EQ31 1-354).
T6 construct: not shown: FLAG tag added at the 5' terminal of the gene
T6 sequence: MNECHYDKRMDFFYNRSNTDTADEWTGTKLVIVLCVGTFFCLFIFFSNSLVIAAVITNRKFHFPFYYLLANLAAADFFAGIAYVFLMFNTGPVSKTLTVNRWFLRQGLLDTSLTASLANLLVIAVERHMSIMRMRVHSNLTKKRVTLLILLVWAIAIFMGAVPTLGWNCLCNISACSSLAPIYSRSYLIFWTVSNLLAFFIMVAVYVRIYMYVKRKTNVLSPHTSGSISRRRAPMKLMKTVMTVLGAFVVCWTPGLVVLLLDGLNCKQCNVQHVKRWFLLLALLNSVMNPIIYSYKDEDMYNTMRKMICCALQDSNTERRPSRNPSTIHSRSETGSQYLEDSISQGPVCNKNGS
The assay is described as above. The method, then:
as §2, §3, §4

The target in assay [9] is T2, mouse LPA1. As to the kind of experiment: flow cytometry, mouse LPA1-stably expressing CHO cells, median fluorescence intensity.
From the text: as §1
(§5) A graph was created, in which a concentration of the antibody was plotted on the […] axis, and a median fluorescence intensity of the flow cytometer histogram was plotted on the horizontal axis. All of the eleven antibodies were confirmed to dose-dependently bind to the human LPA1-stably expressing CHO cell and the mouse LPA1-stably expressing CHO cell. The results of the binding of each antibody to the human LPA1-stably expressing CHO cell are presented in FIG. 2A to FIG. 2K, and the results of the binding of each antibody to the mouse LPA1-stably expressing CHO cell are presented in FIG. 3A to FIG. 3K.

The target in assay [10] is T1, human LPA1. As to the kind of experiment: cell-based or functional assay. This is another data set of the same source.
The target of assay [11] is T2, mouse LPA1. The experiment in a line: cell-based or functional assay. This is another data set of the same source.
Assay [12] deals with T1, human LPA1. The experiment in a line: flow cytometry, human LPA1-stably expressing CHO cells, median fluorescence intensity.
From the text: as §1, §5
This is another data set of the same source.

Where a chain is given by its changes, count along the chain named. Like-named read-outs stand apart in the source and are kept apart here.

T2 sequence (P61793 whole entry): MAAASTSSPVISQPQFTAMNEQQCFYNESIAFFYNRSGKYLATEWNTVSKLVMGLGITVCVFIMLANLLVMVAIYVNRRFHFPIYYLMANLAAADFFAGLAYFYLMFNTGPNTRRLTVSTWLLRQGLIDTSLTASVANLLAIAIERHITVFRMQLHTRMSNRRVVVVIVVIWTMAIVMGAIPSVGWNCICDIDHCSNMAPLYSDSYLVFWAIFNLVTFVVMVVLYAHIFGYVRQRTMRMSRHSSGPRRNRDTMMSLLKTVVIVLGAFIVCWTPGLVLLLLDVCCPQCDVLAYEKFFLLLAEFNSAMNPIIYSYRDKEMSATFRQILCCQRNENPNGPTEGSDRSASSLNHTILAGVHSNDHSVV
T1 sequence (Q92633 whole entry): as the sequence (P61793 whole entry) above, with A4I, S8I, Q22P, Y40H, V61I, D193E, H194N, V269I, N331S, N335T counted along it
T5 sequence (Q9JL06 whole entry): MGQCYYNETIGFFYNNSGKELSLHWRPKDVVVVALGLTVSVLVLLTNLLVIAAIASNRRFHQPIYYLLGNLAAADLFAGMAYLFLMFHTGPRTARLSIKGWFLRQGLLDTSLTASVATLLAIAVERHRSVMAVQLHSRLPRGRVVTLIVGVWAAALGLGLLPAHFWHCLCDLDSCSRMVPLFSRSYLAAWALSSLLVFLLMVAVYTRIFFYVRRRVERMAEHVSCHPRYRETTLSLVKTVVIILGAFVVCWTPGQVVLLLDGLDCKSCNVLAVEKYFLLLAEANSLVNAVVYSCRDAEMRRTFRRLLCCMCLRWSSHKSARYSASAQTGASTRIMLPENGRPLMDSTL
T4 sequence (Q9HBW0 other isoform, or with tags, fused parts or gaps): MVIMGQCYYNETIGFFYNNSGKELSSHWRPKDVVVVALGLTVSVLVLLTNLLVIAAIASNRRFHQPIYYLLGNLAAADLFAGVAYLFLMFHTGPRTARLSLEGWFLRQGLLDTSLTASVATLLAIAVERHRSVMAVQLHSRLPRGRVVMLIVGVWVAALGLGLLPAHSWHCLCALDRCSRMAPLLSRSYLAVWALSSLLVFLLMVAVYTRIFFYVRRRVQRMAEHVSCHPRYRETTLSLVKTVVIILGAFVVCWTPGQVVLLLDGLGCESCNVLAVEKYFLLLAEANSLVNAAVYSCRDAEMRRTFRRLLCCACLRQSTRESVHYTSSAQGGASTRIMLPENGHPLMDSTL

B1: h309-4-A-BP1 (antibody, human IgG1, kappa, L234A L235A, V domains shown)
VH: QVQLVQSGAEVKKPGASVKVSCKASGYTFTSYGISWVRQAPGQGLEWMGEIYPRSGNTYYNEKFKGRVTLTADKSTSTAYMELRSLTSEDTAVYFCARESISRRLGWNFDVWGQGTTVTVSS
VL: DIQMTQSPSSLSASVGDTVTITCRASENIYSFLAWYQQKPGKAPKLLIYNAKTLTEGVPSRFSGSGSGTHFSLTINSLQPEDFGIYYCQHHYGPPLTFGQGTKLEIKR
notes: also called humanized anti-LPA1 antibody
In the case of B1, the “Intracellular cAMP signaling inhibition IC50” value in assay [1] came out at 4.4 nM. The molecule further returned an EC50 in assay [2] of 4.3 nM.

B2: h309-4-A-SG1 (antibody, human IgG1, kappa, L234A L235A, V domains shown)
VH: B1 VH with M48I, V68A, T87R, E89D, Q114T
VL: B1 VL with T18R, L47V, I48V, H70D, S72T, N76S, G84A, I85T, Q100A, I106L
notes: as for B1
Take B2: in assay [1], the “Intracellular cAMP signaling inhibition IC50” value turned out to be 5.7 nM. Also, a half-maximal response in [2] (EC50) required 4.2 nM.

B3: 210309-4-A (antibody, mouse IgG1, V domains shown)
VH: QVQLQQSGAELARPGASVKLSCKASGYTFTSYGISWVKQRTGQGLEWIGEIYPRSGNTYYNEKFKGKATLTADKSSSTAYMELRSLTSEDSAVYFCARESISRRLGWNFDVWGTGTTVTVSS
VL: DIHMTQSPASLSASVGETVTITCRASENIYSFLAWYQQKQGKSPHLVVYNAKTLTEGVPSRFSGSGSGTHFSLKINSLQPEDFGIYYCQHHYGPPLTFGAGTKLELK
notes: Mouse monoclonal from human LPA1 immunization
Turning to B3, the “Intracellular cAMP signaling inhibition (Inhibition rate %/100 nM)” value is 95% in [3] and 50% in assay [4]. Besides, the results for the “Intracellular cAMP signaling inhibition IC50” value in assay [1], in assay [10] and in assay [11] were 4.5 nM, 5.3 nM and 23.8 nM, respectively. For the same molecule, the EC50 stood at 1.4 nM in assay [2], 1.1 nM in assay [9] and 1.5 nM in [12]. Moreover, the binding result in [5], in assay [6], in assay [7] and in [8] was “no binding (tested: 25 g/mL (so in the source))” each time.

B4: 309-4-A-Chimera (antibody, human IgG1, kappa, L234A L235A, V domains shown)
VH: B3 VH
VL: DIHMTQSPASLSASVGETVTITCRASENIYSFLAWYQQKQGKSPHLVVYNAKTLTEGVPSRFSGSGSGTHFSLKINSLQPEDFGIYYCQHHYGPPLTFGAGTKLELKR
notes: also called chimeric anti-LPA1 antibody
For B4, the “Intracellular cAMP signaling inhibition IC50” value in assay [1] came out at 1 nM. This molecule registered a concentration for a half-maximal effect (EC50) in [2] of 4.4 nM.

B5: h309-4-A-SS1 (antibody, human IgG1, kappa, L234A L235A, V domains shown)
VH: QVQLQESGPGLVKPSETLSLTCTASGYTFTSYGISWVRQTPGKGLEWIGEIYPRSGNTYYNEKFKGRATLSADKSKNQASLKLKSVTAADTAIYFCARESISRRLGWNFDVWGRGTLVTVSG
VL: DIQMTQTPSSLSASVGDRVTITCRASENIYSFLAWYQQKPGEAPKRVVYNAKTLTEGVPSRFSGSGSGTDFTLTISSLQPEDFATYYCQHHYGPPLTFGQGTKLEIKR
notes: as for B1
On to B5, for which, in assay [1], the “Intracellular cAMP signaling inhibition IC50” value stood at 5.2 nM. Further, in [2], it took 4.9 nM to reach a half-maximal effect (EC50).
